From publication PMC6956818, “Activation of JNK and p38 MAPK Mediated by ZDHHC17 Drives Glioblastoma Multiforme Development and Malignant Progression” (Theranostics, 2020)

B1: Myc-tagged ZDHHC17 ANK (1-7) [human] / Flag-MAP2K4 [human] (parent complex)
chain 1: THIDDYSTWDIVKATQYGIYERCRELVEAGYDVRQPDKENVTLLHWAAINNRIDLVKYYISKGAIVDQLGGDLNSTPLHWATRQGHLSMVVQLMKYGADPSLIDGEGCSCIHLAAQFGHTSIVAYLIAKGQDVDMMDQNGMTPLMWAAYRTHSVDPTRLLLTFNVSVNLGDKYHKNTALHWAVLAGNTTVISLLLEAGANVDAQNIKGESALDLAKQRKNVWMINHLQEARQAKGYDN
chain 2: MAAPSPSGGGGSGGGSGSGTPGPVGSPAPGHPAVSSMQGKRKALKLNFANPPFKSTARFTLNPNPTGVQNPHIERLRTHSIESSGKLKISPEQHWDFTAEDLKDLGEIGRGAYGSVNKMVHKPSGQIMAVKRIRSTVDEKEQKQLLMDLDVVMRSSDCPYIVQFYGALFREGDCWICMELMSTSFDKFYKYVYSVLDDVIPEEILGKITLATVKALNHLKENLKIIHRDIKPSNILLDRSGNIKLCDFGISGQLVDSIAKTRDAGCRPYMAPERIDPSASRQGYDVRSDVWSLGITLYELATGRFPYPKWNSVFDQLTQVVKGDPPQLSNSEEREFSPSFINFVNLCLTKDESKRPKYKELLKHPFILMYEERAVEVACYVCKILDQMPATPSSPMYVD

Variants of: B1
Assay: co-immunoprecipitation, quantified immunoblot; HEK293 cell lysates; parent: 1; read off a plot

Compared with chain 1 D5G, chain 1 Y6G is lower in ratio to parent: about 0.75 for the first, about 0.35 for the second.

Compared with chain 1 Y17G, chain 1 R52G is higher in ratio to parent: about 0.33 for the first, about 0.35 for the second.

Going from chain 1 Q84G to chain 1 W80G, chain 1 F117G, the ratio to parent falls from about 0.85 to about 0.42.

First: chain 1 D4G
Second: chain 1 R83G, chain 1 R150G
The ratio to parent of the first is lower: about 0.43 for the first, about 0.75 for the second.
